The values below come from patent US20030059461A1.

Assay [1] addresses KDR/flk-1 receptor on 293/KDR or PAE/KDR cells (UniProt P35968). Description: cell-based or functional assay.
The target in assay [2] is S-peptide fragment of bovine pancreatic ribonuclease A (bovine). In words: cell-based or functional assay.

KDR/flk-1 receptor on 293/KDR or PAE/KDR cells, sequence (P35968 20-1356 limits assumed): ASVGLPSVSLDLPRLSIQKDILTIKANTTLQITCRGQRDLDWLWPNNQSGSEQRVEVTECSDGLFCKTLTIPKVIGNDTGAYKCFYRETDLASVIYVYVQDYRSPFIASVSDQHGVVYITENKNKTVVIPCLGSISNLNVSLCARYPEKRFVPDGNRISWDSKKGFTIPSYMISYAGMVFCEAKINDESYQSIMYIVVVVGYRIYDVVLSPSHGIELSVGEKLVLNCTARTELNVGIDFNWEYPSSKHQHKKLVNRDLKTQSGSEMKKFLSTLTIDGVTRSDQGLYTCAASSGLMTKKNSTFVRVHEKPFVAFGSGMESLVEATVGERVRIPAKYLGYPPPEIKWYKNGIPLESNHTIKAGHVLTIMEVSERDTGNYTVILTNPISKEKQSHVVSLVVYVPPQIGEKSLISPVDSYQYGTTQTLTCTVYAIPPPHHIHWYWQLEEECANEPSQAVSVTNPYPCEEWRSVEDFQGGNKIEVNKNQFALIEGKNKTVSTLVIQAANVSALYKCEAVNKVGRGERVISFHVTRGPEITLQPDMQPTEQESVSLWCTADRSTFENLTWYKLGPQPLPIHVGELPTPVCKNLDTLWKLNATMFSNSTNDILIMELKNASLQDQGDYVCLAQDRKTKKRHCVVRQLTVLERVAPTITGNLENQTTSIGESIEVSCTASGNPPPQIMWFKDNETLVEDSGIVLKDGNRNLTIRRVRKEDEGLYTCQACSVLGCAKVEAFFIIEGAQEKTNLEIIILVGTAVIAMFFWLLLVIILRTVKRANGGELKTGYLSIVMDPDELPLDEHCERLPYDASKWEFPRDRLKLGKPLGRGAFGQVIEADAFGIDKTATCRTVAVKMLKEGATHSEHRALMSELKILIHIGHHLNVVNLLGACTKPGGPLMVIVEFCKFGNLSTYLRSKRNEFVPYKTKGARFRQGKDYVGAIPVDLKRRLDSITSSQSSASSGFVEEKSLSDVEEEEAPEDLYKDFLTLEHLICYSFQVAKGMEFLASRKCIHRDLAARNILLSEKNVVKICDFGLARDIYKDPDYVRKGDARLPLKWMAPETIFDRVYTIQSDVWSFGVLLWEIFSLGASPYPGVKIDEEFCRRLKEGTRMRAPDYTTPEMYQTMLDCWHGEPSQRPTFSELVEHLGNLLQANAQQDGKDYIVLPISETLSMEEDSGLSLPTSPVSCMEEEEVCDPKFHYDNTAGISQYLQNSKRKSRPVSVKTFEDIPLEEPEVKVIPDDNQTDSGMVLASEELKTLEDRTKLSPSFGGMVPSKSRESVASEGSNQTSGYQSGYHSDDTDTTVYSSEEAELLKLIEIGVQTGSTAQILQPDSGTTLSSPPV
Lip(Dox)-SP-FVEGF121 complex, sequence (P15692 other isoform, or with tags, fused parts or gaps): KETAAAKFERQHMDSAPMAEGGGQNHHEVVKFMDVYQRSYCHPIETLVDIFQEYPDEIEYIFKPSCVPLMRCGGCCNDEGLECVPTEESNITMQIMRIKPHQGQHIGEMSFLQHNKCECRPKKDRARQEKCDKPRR
Lip(Dox)-SP-FVEGF121 complex, sequence (P61823 47-150): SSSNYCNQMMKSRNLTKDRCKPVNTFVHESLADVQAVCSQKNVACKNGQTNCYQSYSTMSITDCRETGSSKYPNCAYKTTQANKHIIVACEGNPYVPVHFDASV
MBS-modified S-protein, 2-fold molar excess of sulfo-MBS, sequence (P61823 47-150): as above
MBS-modified S-protein, 20-fold molar excess of sulfo-MBS, sequence (P61823 47-150): as above
S-protein fragment of bovine ribonuclease (Sigma), sequence (P61823 47-150): as above
MBS-modified S-protein, 10-fold molar excess of sulfo-MBS, sequence (P61823 47-150): as above
MBS-modified S-protein, 40-fold molar excess of sulfo-MBS, sequence (P61823 47-150): as above

On to “Lip(Dox)-SP-FVEGF121 complex (from UniProt P15692 27-147; P61823 47-150)”, for which the IC50 of growth inhibition of 293/KDR cells in assay [1] stood at 5 nM.

With “MBS-modified S-protein, 2-fold molar excess of sulfo-MBS (from UniProt P61823 47-150)”, the Ribonuclease Activity (%), S-tag Rapid Assay Kit; SulphoMBS molar excess: 2 in assay [2] came to 57%.

Regarding “MBS-modified S-protein, 10-fold molar excess of sulfo-MBS (from UniProt P61823 47-150)”, the Ribonuclease Activity (%), S-tag Rapid Assay Kit; SulphoMBS molar excess: 10 in assay [2] was found to be 38%.

The substance “MBS-modified S-protein, 20-fold molar excess of sulfo-MBS (from UniProt P61823 47-150)” gave a Ribonuclease Activity (%), S-tag Rapid Assay Kit; SulphoMBS molar excess: 20 in assay [2] of 36%.

In turn, “MBS-modified S-protein, 40-fold molar excess of sulfo-MBS (from UniProt P61823 47-150)” gave a Ribonuclease Activity (%), S-tag Rapid Assay Kit; SulphoMBS molar excess: 40 in assay [2] of 25%.

In turn, “S-protein fragment of bovine ribonuclease (Sigma) (from UniProt P61823 47-150)” returned a Ribonuclease Activity (%), S-tag Rapid Assay Kit; SulphoMBS molar excess: none in assay [2] of 100%.
